{
  "source": "patent US20250145705A1",
  "about": "(SHANDONG SIMCERE BIOPHARMACEUTICAL, published 2025)",
  "key": {"human GPRC5D [1]": {"target": "T1, human GPRC5D (human, UniProt Q9NZD1 1-345)", "T1 construct": "the cell line is named under assay; also called hGPRC5D; G protein coupled receptor C5 family subtype D", "T1 sequence (Q9NZD1 whole entry)": "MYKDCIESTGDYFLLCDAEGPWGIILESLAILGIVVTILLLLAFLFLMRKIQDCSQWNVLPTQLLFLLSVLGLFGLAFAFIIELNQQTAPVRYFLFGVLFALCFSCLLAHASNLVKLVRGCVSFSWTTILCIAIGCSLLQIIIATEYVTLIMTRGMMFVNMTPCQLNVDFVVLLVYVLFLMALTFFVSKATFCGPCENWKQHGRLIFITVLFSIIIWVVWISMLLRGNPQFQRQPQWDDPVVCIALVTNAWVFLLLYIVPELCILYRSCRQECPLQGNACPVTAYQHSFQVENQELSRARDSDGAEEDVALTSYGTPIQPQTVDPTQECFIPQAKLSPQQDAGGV", "test": "FACS, CHOK1-hGPRC5D high pool"}, "human GPRC5D [2]": {"target": "T1, human GPRC5D", "test": "FACS, HEK293T-hGPRC5D high pool"}, "[3]": {"target": "monkey GPRC5D (monkey (cyno))", "sequence (Q9NZD1 other isoform, or with tags, fused parts or gaps)": "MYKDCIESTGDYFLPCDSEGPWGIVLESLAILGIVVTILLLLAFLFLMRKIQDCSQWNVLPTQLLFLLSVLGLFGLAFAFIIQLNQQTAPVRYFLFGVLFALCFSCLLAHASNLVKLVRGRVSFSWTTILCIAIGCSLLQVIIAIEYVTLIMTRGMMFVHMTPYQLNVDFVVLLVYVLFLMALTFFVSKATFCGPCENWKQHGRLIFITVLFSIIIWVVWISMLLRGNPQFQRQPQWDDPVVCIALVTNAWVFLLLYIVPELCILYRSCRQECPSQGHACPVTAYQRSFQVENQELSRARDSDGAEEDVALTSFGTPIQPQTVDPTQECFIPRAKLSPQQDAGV", "test": "FACS, CHOK1-cynoGPRC5D high pool"}, "[4]": {"target": "monkey GPRC5D (monkey (cyno))", "test": "FACS, HEK293T-cynoGPRC5D high pool"}, "human GPRC5D [5]": {"target": "T1, human GPRC5D", "test": "FACS, MolP-8 cells"}, "human GPRC5D [6]": {"target": "T1, human GPRC5D", "test": "FACS, NCI-H929 cells", "experimental": "(§1) The desired cells were scale-up cultured in a T-75 cell culture flask to the logarithmic growth phase. NCI-H929, MolP-8 and RPMI-8226 cells were collected and washed with PBS buffer 2 times. After counting the cells, the cell pellet was resuspended with [PBS+2% (w/v) BSA] blocking solution to 2×10⁶ cells/ml, and added to a 96-well FACS reaction plate at 50 μl/well, and then the chimeric antibody test sample was added at 50 μl/well, and incubated on ice for 1 h. […] The obtained mixture was centrifuged and washed 3 times with a PBS buffer, and FACS (FACS CantoII, purchased from BD Company) was used for detection and result analysis. Data analysis was performed by software (Flowjo) to obtain the mean fluorescence intensity (MFI) of the cells. Then a software (GraphPad Prism8) was used for analysis, the analysis results are shown in Table 9 and FIGS. 9A-9C, 10A-10C and 11A-11C."}, "human GPRC5D [7]": {"target": "T1, human GPRC5D", "test": "FACS, RPMI-8226 cells", "experimental": "as §1"}, "[8]": {"target": "hGPRC5D-LVP protein (human) (UniProt Q9NZD1)", "sequence (Q9NZD1 whole entry)": "as the sequence (Q9NZD1 whole entry) above", "test": "competitive ELISA, competitor Biotin-5F11; antibody at 0 nM"}, "[9]": {"target": "hGPRC5D-LVP protein (human) (UniProt Q9NZD1)", "test": "competitive ELISA, competitor Biotin-5F11; antibody at 0.07 nM"}, "[10]": {"target": "hGPRC5D-LVP protein (human) (UniProt Q9NZD1)", "test": "competitive ELISA, competitor Biotin-5F11; antibody at 0.21 nM"}, "[11]": {"target": "hGPRC5D-LVP protein (human) (UniProt Q9NZD1)", "test": "competitive ELISA, competitor Biotin-5F11; antibody at 0.62 nM"}, "[12]": {"target": "hGPRC5D-LVP protein (human) (UniProt Q9NZD1)", "test": "competitive ELISA, competitor Biotin-5F11; antibody at 1.85 nM"}, "[13]": {"target": "hGPRC5D-LVP protein (human) (UniProt Q9NZD1)", "test": "competitive ELISA, competitor Biotin-5F11; antibody at 5.56 nM"}, "[14]": {"target": "hGPRC5D-LVP protein (human) (UniProt Q9NZD1)", "test": "competitive ELISA, competitor Biotin-5F11; antibody at 16.67 nM"}, "[15]": {"target": "hGPRC5D-LVP protein (human) (UniProt Q9NZD1)", "test": "competitive ELISA, competitor Biotin-5F11; antibody at 50.00 nM"}},
  "note": "“And” between values parts separate entries of the source, which are not always exact repeats. Identical values can stand only once.",
  "data": [
    {"molecule": "IgG subtype control (antibody)", "values": [
      {"measurement": "Mean fluorescence intensity", "setting": "human GPRC5D [1]", "value": 56.4},
      {"measurement": "Cell mean fluorescence density", "setting": "human GPRC5D [2]", "value": 18.9},
      {"measurement": "Mean fluorescence density", "setting": "[3]", "value": 52.9},
      {"measurement": "Mean fluorescence density", "setting": "[4]", "value": 18.2}
    ]},
    {"molecule": "anti-hel-hIgG1 (antibody)", "values": [
      {"measurement": "Maximum mean fluorescence intensity", "setting": "human GPRC5D [5]", "value": "81 and 103 and 90"},
      {"measurement": "Maximum mean fluorescence intensity", "setting": "human GPRC5D [6]", "value": "85 and 74"},
      {"measurement": "Maximum mean fluorescence intensity", "setting": "human GPRC5D [7]", "value": "108 and 106 and 85"},
      {"measurement": "OD450", "setting": "[8]", "value": "1.22 and 0.57 and 0.94"},
      {"measurement": "OD450", "setting": "[9]", "value": "1.24 and 0.62 and 0.92"},
      {"measurement": "OD450", "setting": "[10]", "value": "1.27 and 0.68 and 0.87"},
      {"measurement": "OD450", "setting": "[11]", "value": "1.2 and 0.67 and 0.88"},
      {"measurement": "OD450", "setting": "[12]", "value": "1.16 and 0.7 and 0.89"},
      {"measurement": "OD450", "setting": "[13]", "value": "1.14 and 0.69 and 0.87"},
      {"measurement": "OD450", "setting": "[14]", "value": "1.15 and 0.65 and 0.9"},
      {"measurement": "OD450", "setting": "[15]", "value": "1.16 and 0.63 and 0.89"}
    ]},
    {"molecule": "5F11-hIgG1 (antibody, V domains shown, Control antibody; VH and VL from WO 2019154890 A1 recombined into human IgG1 CH and CL expression vectors; also called h5F11-hIgG1; positive control antibody 5F11) VH: EVQLVESGGGLVQPGRSLKLSCAASGFSFSNYGMAWVRQAATKGLEWVASISTGGGNTYYRDSVKGRFIVSRDNAKNTQYLQMDSLRSEDTATYYCTRHDRGGLYWGQGVMVTVSS VL: DIVMTQAPLSVSVTPGESASISCRSSKSLLHSNGITYVYWYFQKPGKSPQVLIYRMSNLASGVPDRFSGSGSETDFTLKISRVEAEDVGIYHCGQLLENPYTFGAGTELELKR", "values": [
      {"measurement": "EC50", "setting": "human GPRC5D [6]", "value": "1.25 nM and 3.5 nM and 1.97 nM"},
      {"measurement": "EC50", "setting": "human GPRC5D [7]", "value": "3.17 nM and 2.86 nM and 6.48 nM"}
    ]}
  ]
}
